Reference: publication doi:10.1101/2020.02.21.959445
Substitutions are numbered along the chain they refer to.

What was measured:
Assay in all cases: EMSA
MEF-1 = biological target: T1, MEF-1 (designed (human Max/human E47/FosW))
T1 chain: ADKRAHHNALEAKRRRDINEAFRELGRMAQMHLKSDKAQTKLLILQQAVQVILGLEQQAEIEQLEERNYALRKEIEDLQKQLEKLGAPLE

MEF+1 = biological target: T2, MEF+1 (designed (human Max/human E47/FosW))
T2 chain: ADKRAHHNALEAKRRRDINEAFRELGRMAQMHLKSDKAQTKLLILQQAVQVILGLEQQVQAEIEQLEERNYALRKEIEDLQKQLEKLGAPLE

MEF/LA = biological target: T3, MEF/LA (designed (human Max/human E47/FosW), four FosW heptad Leu to Ala (see sequence))
T3 chain: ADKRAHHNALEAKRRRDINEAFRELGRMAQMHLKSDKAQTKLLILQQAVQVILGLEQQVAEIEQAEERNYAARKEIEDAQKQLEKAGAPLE

ME47/AA = biological target: T4, ME47/AA (designed (human Max/human E47), R12A;C29A)
T4 chain: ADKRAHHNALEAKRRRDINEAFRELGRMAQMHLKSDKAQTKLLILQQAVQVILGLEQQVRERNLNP

MEF = biological target: T5, MEF (designed (human Max/human E47/FosW))
T5 chain: T3 chain with A65L, A72L, A79L, A86L

B1: NS DNA (nonspecific; TCCAAG in place of CACGTG) (dsDNA)
DNA 1: TGCAGGAGTTCCAAGGCGAAGGTT
DNA 2: AACCTTCGCCTTGGAACTCCTGCA
**Q.** Which results are given for B1?
**A.** Kd (MEF-1): 111 ± 18 nM; Kd (MEF+1): 65 ± 7 nM; Kd (MEF/LA): 44.5 ± 6 nM; Kd (ME47/AA): 87.5 ± 5.1 nM; Kd (MEF): 96 ± 22 nM

B2: AT E-box (-7 AT E-box) (dsDNA)
DNA 1: GCGGCCGCTGCAGGAACCACGTGGTGGAATTCTTTACA
DNA 2: TGTAAAGAATTCCACCACGTGGTTCCTGCAGCGGCCGC
**Q.** With B2 as the binder, how does the Kd (ME47/AA) read?
**A.** 28.5 ± 2.3 nM

B3: E-box (-7 GC E-box) (dsDNA)
DNA 1: B2 DNA 1 with A16G, G24C, T25G
DNA 2: B2 DNA 2 with A14C, C15G, T23C
**Q.** Which results are given for B3?
**A.** Kd (MEF-1): 59 ± 5 nM; Kd (MEF+1): 30 ± 4 nM; Kd (MEF/LA): 10.7 ± 1.5 nM; Kd (ME47/AA): 27.7 ± 1.7 nM; Kd (MEF): 7.8 ± 0.6 nM
